To fix the notation:
B1: wildtype HPV31 E6 fused to the VP16 transcriptional activation domain [human papillomavirus type 31] / pep11** fused to the GAL4 DNA binding domain (parent complex)
chain 1: MFKNPAERPRKLHELSSALEIPYDELRLNCVYCKGQLTETEVLDFAFTDLTIVYRDDTPHGVCTKCLRFYSKVSEFRWYRYSVYGTTLEKLTNKGICDLLIRCITCQRPLCPEEKQRHLDKKKRFHNIGGRWTGRCIACWRRPRTETQV
chain 2: KEKEEYNSNCSCIACIGLI

The variants in the assay derive from B1. Put plainly: mammalian two-hybrid; E6 constructs contain an additional flag-tag between E6 and the VP16-AD; RLA relative to pep11**-GAL4-BD + empty pACT set at 1.0; read off a plot.
With chain 1 MFKNPAERPRKLHELSSALEIPYDELRLNCVYCKGQLTETEVLDFAFTDLTIVYRDDTPHGVCTKCLRFYSKVSEFRHYRYSVYGTTLEKLTNKGICDLLIRCITCQRPLCPEEKQRHLDKKKRFHNIGGRWTGRCIACWRRPRTETQV [chain 1 W78H], the response was approximately 39 RLA. Then chain 1 MFKNPAERPRKLHELSSALEIPYDELRLNCVYCKGQLTETEVLDFAFTDLTIVYRDDTPHGVCTKCLRFYSKVSEFRAYRYSVYGTTLEKLTNKGICDLLIRCITCQRPLCPEEKQRHLDKKKRFHNIGGRWTGRCIACWRRPRTETQV [chain 1 W78A], with approximately 1.2 RLA.

Values taken from PMC4226571, “The E6AP Binding Pocket of the HPV16 E6 Oncoprotein Provides a Docking Site for a Small Inhibitory Peptide Unrelated to E6AP, Indicating Druggability of E6” (PLoS ONE, 2014).
